Assay results reported in article doi:10.1101/466946 (bioRxiv, 2018).

Target: recombinant full-length CIN85 (human, UniProt Q96B97 1-665)
Experiment: SPR

Chain of recombinant full-length CIN85 (Q96B97 whole entry): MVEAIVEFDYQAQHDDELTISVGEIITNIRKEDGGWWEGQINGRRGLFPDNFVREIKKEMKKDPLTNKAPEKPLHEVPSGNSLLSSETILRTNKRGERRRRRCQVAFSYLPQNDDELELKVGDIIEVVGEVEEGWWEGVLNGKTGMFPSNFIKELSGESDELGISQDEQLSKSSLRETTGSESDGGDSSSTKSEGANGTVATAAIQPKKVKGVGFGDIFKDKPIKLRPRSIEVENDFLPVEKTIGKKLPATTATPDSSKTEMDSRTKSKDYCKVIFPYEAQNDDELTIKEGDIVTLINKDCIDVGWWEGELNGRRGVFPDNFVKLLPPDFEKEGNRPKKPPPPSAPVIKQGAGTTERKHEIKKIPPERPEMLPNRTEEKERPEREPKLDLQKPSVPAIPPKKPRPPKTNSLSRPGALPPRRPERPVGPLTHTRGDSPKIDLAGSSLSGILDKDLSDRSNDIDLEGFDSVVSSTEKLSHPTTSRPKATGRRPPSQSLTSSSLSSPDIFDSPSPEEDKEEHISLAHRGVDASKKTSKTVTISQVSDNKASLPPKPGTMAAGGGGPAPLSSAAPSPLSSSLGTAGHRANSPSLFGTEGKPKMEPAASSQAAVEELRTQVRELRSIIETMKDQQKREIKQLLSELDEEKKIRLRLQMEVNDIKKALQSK

Kd: 28.5 nM
B1: recombinant PHD2 (enzyme, human, UniProt Q9GZT9 1-426, looked up)
chain: MANDSGGPGGPSPSERDRQYCELCGKMENLLRCSRCRSSFYCCKEHQRQDWKKHKLVCQGSEGALGHGVGPHQHSGPAPPAAVPPPRAGAREPRKAAARRDNASGDAAKGKVKAKPPADPAAAASPCRAAAGGQGSAVAAEAEPGKEEPPARSSLFQEKANLYPPSNTPGDALSPGGGLRPNGQTKPLPALKLALEYIVPCMNKHGICVVDDFLGKETGQQIGDEVRALHDTGKFTDGQLVSQKSDSSKDIRGDKITWIEGKEPGCETIGLLMSSMDDLIRHCNGKLGSYKINGRTKAMVACYPGNGTGYVRHVDNPNGDGRCVTCIYYLNKDWDAKVSGGILRIFPEGKAQFADIEPKFDRLLFFWSDRRNPHEVQPAYATRYAITVWYFDADERARAKVKYLTGEKGVRVELNKPSDSVGKDVF
